Laboratory results published in paper PMC8926151 (Science (New York, N.Y.), 2021).

B1: human GPR158 receptor (receptor, UniProt Q5T848 24-1215, looked up)
chain: ASRDPQGRPDSPRERTPKGKPHAQQPGRASASDSSAPWSRSTDGTILAQKLAEEVPMDVASYLYTGDSHQLKRANCSGRYELAGLPGKWPALASAHPSLHRALDTLTHATNFLNVMLQSNKSREQNLQDDLDWYQALVWSLLEGEPSISRAAITFSTDSLSAPAPQVFLQATREESRILLQDLSSSAPHLANATLETEWFHGLRRKWRPHLHRRGPNQGPRGLGHSWRRKDGLGGDKSHFKWSPPYLECENGSYKPGWLVTLSSAIYGLQPNLVPEFRGVMKVDINLQKVDIDQCSSDGWFSGTHKCHLNNSECMPIKGLGFVLGAYECICKAGFYHPGVLPVNNFRRRGPDQHISGSTKDVSEEAYVCLPCREGCPFCADDSPCFVQEDKYLRLAIISFQALCMLLDFVSMLVVYHFRKAKSIRASGLILLETILFGSLLLYFPVVILYFEPSTFRCILLRWARLLGFATVYGTVTLKLHRVLKVFLSRTAQRIPYMTGGRVMRMLAVILLVVFWFLIGWTSSVCQNLEKQISLIGQGKTSDHLIFNMCLIDRWDYMTAVAEFLFLLWGVYLCYAVRTVPSAFHEPRYMAVAVHNELIISAIFHTIRFVLASRLQSDWMLMLYFAHTHLTVTVTIGLLLIPKFSHSSNNPRDDIATEAYEDELDMGRSGSYLNSSINSAWSEHSLDPEDIRDELKKLYAQLEIYKRKKMITNNPHLQKKRCSKKGLGRSIMRRITEIPETVSRQCSKEDKEGADHGTAKGTALIRKNPPESSGNTGKSKEETLKNRVFSLKKSHSTYDHVRDQTEESSSLPTESQEEETTENSTLESLSGKKLTQKLKEDSEAESTESVPLVCKSASAHNLSSEKKTGHPRTSMLQKSLSVIASAKEKTLGLAGKTQTAGVEERTKSQKPLPKDKETNRNHSNSDNTETKDPAPQNSNPAEEPRKPQKSGIMKQQRVNPTTANSDLNPGTTQMKDNFDIGEVCPWEVYDLTPGPVPSESKVQKHVSIVASEMEKNPTFSLKEKSHHKPKAAEVCQQSNQKRIDKAEVCLWESQGQSILEDEKLLISKTPVLPERAKEENGGQPRAANVCAGQSEELPPKAVASKTENENLNQIGHQEKKTSSSEENVRGSYNSSNNFQQPLTSRAEVCPWEFETPAQPNAGRSVALPASSALSANKIAGPRKEEIWDSFKV
B2: RGS7-Gβ5 signaling complex (complex)
chain 1: MAQGNNYGQTSNGVADESPNMLVYRKMEDVIARMQDEKNGIPIRTVKSFLSKIPSVFSGSDIVQWLIKNLTIEDPVEALHLGTLMAAHGYFFPISDHVLTLKDDGTFYRFQTPYFWPSNCWEPENTDYAVYLCKRTMQNKARLELADYEAESLARLQRAFARKWEFIFMQAEAQAKVDKKRDKIERKILDSQERAFWDVHRPVPGCVNTTEVDIKKSSRMRNPHKTRKSVYGLQNDIRSHSPTHTPTPETKPPTEDELQQQIKYWQIQLDRHRLKMSKVADSLLSYTEQYLEYDPFLLPPDPSNPWLSDDTTFWELEASKEPSQQRVKRWGFGMDEALKDPVGREQFLKFLESEFSSENLRFWLAVEDLKKRPIKEVPSRVQEIWQEFLAPGAPSAINLDSKSYDKTTQNVKEPGRYTFEDAQEHIYKLMKSDSYPRFIRSSAYQELLQAKKK
chain 2: GLHENETLASLKSEAESLKGKLEEERAKLHDVELHQVAERVEALGQFVMKTRRTLKGHGNKVLCMDWCKDKRRIVSSSQDGKVIVWDSFTTNKEHAVTMPCTWVMACAYAPSGCAIACGGLDNKCSVYPLTFDKNENMAAKKKSVAMHTNYLSACSFTNSDMQILTASGDGTCALWDVESGQLLQSFHGHGADVLCLDLAPSETGNTFVSGGCDKKAMVWDMRSGQCVQAFETHESDINSVRYYPSGDAFASGSDDATCRLYDLRADREVAIYSKESIIFGASSVDFSLSGRLLFAGYNDYTINVWDVLKGSRVSILFGHENRVSTLRVSPDGTAFCSGSWDHTLRVWA

Legend:
cryo-EM structure = biological target: the molecule itself; assay: cryo-EM structure
human GPR158 receptor = biological target: B1; assay: cryo-EM structure

Row | stoichiometry N (human GPR158 receptor) | Binder | stoichiometry N (cryo-EM structure)
1 |  | B1 | 2
2 | 1 RGS7-Gβ5 complex per GPR158 homodimer | B2 | 
